{"source": "the DeepSol protein solubility set", "data": [{"assay": "soluble on expression in E. coli; label from the status in PepcDB or PDB records", "values": [{"sequence": "MGSDKIHHHHHHLGGGGIRPSHLLADEGGGPPYRPPAGRPVPSVPALMKLNAIEAGSAAADRVPLLILHGLLGSARNWGAVVKALGESRRVLALDLPNHGSSPWTEIMDYPFMARELASVIEHLGGRAAIMGHSMGGKAAMTLALSRPELVERLVVVDIAPVSYSHTFAPYIKAMRGVPLGEVSSRGEVEAALAGAIPDKGVRAFLMQNLEGGAGGYRWRPNLAVLGAHMDDILAFPHFPDDTAFQGPTLFVAGETSDYIRPAHEDVIAQFFPKAESVEIPGAGHWVHADNPSAFMSAIGSFL", "soluble on expression in E. coli": "not soluble"}, {"sequence": "METIFEDEETMMAAEQSSSGISANSNSNCSASKTEKASKKPKNAIPKVKNSGIHKKPAKSDFDEFLSSMKSRLSQATSMKSNKEQLKMLEETQKLIFDRITKSADARDMEHLEKQMNKL", "soluble on expression in E. coli": "soluble"}, {"sequence": "VQAANLMDRIKANPVSEKNIDEKFIYNTADFSIELFKNSIDDKENSLISPLSAMLALAMTANGADNETLAQMEKALGKDISIEDLNKYLYTYMKKLPNEEKSKLTIANSIWFKENDFMPSKDFLQIIADYYKADIFKAAFDSSTVSDINNWVKSKTNGMIDKILNKIDPEDVMYLINAVAFDAEWETVYEKASVHEDIFTDVYGNRQKVEFMNSEENLYIEEENAIGFVKPYAKNHYSFVAILPDENISVNEYIKTLTGQKFIDLIKNAKITLVRASLPKFKYEYTIKMNETLESLGMTDAFLPDKADFSKLGKSDIGNLYISEVLHKTFISVDELGTKAGAVTSVDITAAGIPVNFKTVKLNRPFIFAIIDNSTNLPIFIGTVLSL", "soluble on expression in E. coli": "soluble"}, {"sequence": "MNIGSAIREIRQRRGITIAQICEGTGLSKGFMSQVENNKTSPSISTLETISNFLNVPLPYLLLEQKDRLKIVKKEERKYSVYGKDEQRIEHVAEQGGLRLSLVEIPTGFPKENSPNAHEGEECHLVLRGKLEVQHGEDIAIVEEGDSFSWNACVPHIVRNIGEETALLLISSYAENRQRVY", "soluble on expression in E. coli": "not soluble"}, {"sequence": "AVMHYTSDTEFCVSCHSMEIPYKEYQGSVHFSNAKGIRAECSDCHIPQEPMDYLITKIRASKDIYHEFVTGKIDTPEKYEAHRKDMAETVWAQFRENDSATCRSCHDFDAMEEFEQSRDAAKMHEYAKANDQTCIDCHKGVAHFAPEAELDSKAFETLMSFTTKTAANAKVVYPVTTINMGEMGTINPTTKLEVMSAEGDNRTVKLNAFQMKGAEQVLYMGEGQRAIVATLTEQGQQALEAGEFEADVYGNEWRAVSLTGAIDSPVVDTLDPVWSYAEELDNVYCATCHAKIPSNHFTV", "soluble on expression in E. coli": "not soluble"}, {"sequence": "MSKNIVVAPSILSADFSRLGEEIKAVDEAGADWIHVDVMDGRFVPNITIGPLIVDAIRPLTKKTLDVHLMIVEPEKYVEDFAKAGADIISVHVEHNASPHLHRTLCQIRELGKKAGAVLNPSTPLDFLEYVLPVCDLILIMSVNPGFGGQSFIPEVLPKIRALRQMCDERGLDPWIEVDGGLKPNNTWQVLEAGANAIVAGSAVFNAPNYAEAIAGVRNSKRPEPQLATV", "soluble on expression in E. coli": "soluble"}, {"sequence": "MAHHHHHHMVFHLNIFNKGKRQNLVSAYLNHFKKSYFSGVTSGSDCVNKSEVSSDNNNNNNNNNNKIAHNFFSKKYQRNFENNNLSENQENNKNIIYSGSNIFKNIYNTEMMSNNNTVDVNMMDNNPAARLEELRTIMKKNKIDVYILINSDEHNSEIINEKDKKIVKITNYSGADGILIVTKDKPILYVNALYELQAMNELDQNLFTLRISRIDNRDEIFETISSLEFNTIAFDGKNTSVVFYEKLRKALLNAYPKKKIVEKIIYNNNFDDVNKKDDENVLNFLVLEKSLVEIKDYPVNNKTLYIHDRKYNGACAGEKIDKLKQSLMYDIKNVDNLLLSELDEIAYLLNLRGYDYQYSPLFYSYLLFQFDREEQDFSKIVFFTTVKNLPADVKNLLEINKVIVKEYEEIVPYLRDVVIPSIPKHNDDNPDFKKYDISLSPYINLMIYKLFDRKNVLLQNSPVVKMKAVKNDVEIDNMKQAHILDGLALLQFFHWCEQKRKTKELFNETEMSLRHKVDYFRSTKKNFIFPSFSTISASGPNAAVIHYECTDKTNATIKPAIYLLDSGGQYLHGTTDVTRTTHFGEPTAEEKRIYTLVLKGHLRLRKVIFASYTNSSALDFIARENLFNNFMDYNHGTGHGVGLTLNVHEGGCSIGPVGGAPLKKNMVLSNEPGYYMKDKFGVRIENMQYVISKEITDTTEYLSFDDLTMYPYEK", "soluble on expression in E. coli": "not soluble"}, {"sequence": "MRATAIKIFSLSSALALLLHGCLSINLKQMLPEIRTYDLNASSFEITQCAKPLTEVRLISILSADLFNTKEIVFKAKDGQITHGKHQKWIDLPRNMLKTMFMQEAQKACLGVALPPYGAGAPTYAVRFTILSFSLLEKENSTYRAEFALGYDISVKGDSHSGVIIKHENISSLENKTTKTSKNGNQDFQESAIQSLQHVSVQAIQEAVSLIKKAIEAQSVSPLKK", "soluble on expression in E. coli": "not soluble"}, {"sequence": "MPVMSLIEQYEAAIYRGEIDSDPEQREILEHMQRLAEDLQKKSDSWFPWRKKHPIKGLYIYGPVGVGKTYLVDLFYQHIDEEKKARFHFHHFMQQIDAQLRRLQGKKNPLQYIAKEMAKSIRLLCFDEFLVHDVAYAMILAELLQALHHYGVVLVVSSNTRPDELYLNGVHRERFIPAIEIIKKNCEVLNLNQKRDYRLGRQPLLEAYLYPLNEQTQEAMEKQFALITREEDCKGFITVQNRDIPYIKYGTRSIWFAFDVICNFPRSQLDYLEIADRFDNVFLSDVYQLTESHTAQAIMFIHFIDVMYDRGIKLIISADVPAEELYVKGEMKETFKRTLSRLIEMQSVDYLSRHPRRLVKEMLLEHHHHHH", "soluble on expression in E. coli": "not soluble"}, {"sequence": "SHMSKAKFDKAVEIVQSLPKDGPIKPTQDEQLYFYKYFKQATVGDVNISRPGLMDFTGKAKWDAWKSVEGTSKEVAYQKYVEKLLEILKKADTEESKKYIAEIEAA", "soluble on expression in E. coli": "soluble"}, {"sequence": "MDVNQFTELITKLQSADNDIRKQAEEVYEKIEGPTKVAALFEAYTHHTNNSDARSTVLVFLRRVLARDWDAIWETLNEENKQRILAKVLEMIVHETELSIKKKIADLISEIASNLIDDSGDMTWGGVLELMDHCLKSEDLTGNYIALLILRGCPIIFGNRLAHFLPTLKVVLEKCMATPDLQIKATAVRAVIAFAVDNDEEKDVVRLMTSLVPNVLQVCNETSDEDDSDGPLGEFAELASSLPKCLNTHMSQVLQVTLAIAGNKEKNEMVRQNAIEVICSYMESAPKGLKKYAPGALGPILETLLSCMTEMDDDVLNEWLNEIEEEEDYEDIPIIAESAIDRVACCINGKVMLPVFLPLVEKLLTSEDWKMKHAALRAFSAVGEGCQRSMEPHIEQIMAHITNYVNDAHPRVQYAACNAIGQMSSDFAPTLQKKCHAAVIPALLESLDRTDVPRVCAHAASALVNFAEECPKSIIGQYLPFILQKLENVLSAVFNRLGDKRYQVVVENIVTAIASVAEAAEELFKEHHARLIPNLVHILQNVGELKELRGKTIECISLIGYAVGKEQFHATAIEILNLLGDGMKDLAIDDPQYSYMISSWTRFCSILGADFAPFLPVVMDPVLRAARYRPDFNIFNNEDVHENEEGVEYHGIGGEKTVGIRTSGLEEKATACDMLVAFAKEMKEAFMPYVVDVYELAIKNLDFGLHDGVRTASAEIMPCLLTCVEKQGLADKRRLWCEFLKALTTSMEEEDDVEILASFMTTIGSCIEVMKTEGIAEEEVQLIISVLLKQLENYGKRMSDRPVEDEDDDDAEAKEELDYFMELEASCLGAISDLTHSLMKEFKGTIFEGMINVFNCAIQLIEGSKQYFERQWGMCLLDDAIEFGVGHMPTRFPKLIPIMYKLLGDEYPEVRQAASYGFGVMAINYHQISDYRNEILSCLEPLAAMIQREDARATEESTVATENAISAFAKIIGNVPLPAEAYGKVVEMFLSWLPTYSDTEESPYIYTCLAELFDKQDAALFGPENQNLPRIFLVCLLSIANDAFNDDDSGNQTKQRIVTILKQIYASFPQFAQQDGIDEHLTSVLQQTLNGQ", "soluble on expression in E. coli": "not soluble"}, {"sequence": "MPTYKLTYFDGRGLAEPARMLFHLGGVPFEDSRIPVDMKTGLIMNPELADVKKKAPFGKYPVLKIDDIEIAQSAAINRYLARQFGFAGKNPIEEAQADSYIDQCQEYNTSFRACMYATLQGKPEEEVQKIREEVYIPAQNKFYEIFSDILNRNKSGFLVGDSLTWADLVIADHLYSLDTMGMLTHEDAWRCETLKKFQEKIYEHPLLKGYIASRPKGAF", "soluble on expression in E. coli": "not soluble"}, {"sequence": "MSLAKTVEEINQKIREGNVVVVTAAEMKDIVEELGPEKAAKEVDVVTTGTFGAMCSSGAFFNFGHADPPIKMQRVWMNDVEAYTGIAAVDAYLGVTQLSESVEEYGGSHVIEELVKGREVELKATAYGTDCYPRKEIVTEVSLEDVNQAVMVNPRNAYQRYNAATNSSNKLLRTYMGTLLPNFGNVTFAGTGEISPLNNDPEYRTIGIGTRIFLCGAKGYVIGEGTQHAPPYGTLMVKGNLKEMKPEYMKAAYFPGYGATLFVGIGIPIPILDAEMAKFTAVRNSEIETKILDFGVARRDRPVVRKVTYEELISGRVEINGEEVRVSPLSSFYMAEKIMKELKRQIERGEFLLTAPVDRIPTKEVFKPMRQREVKVVKSVMVEAYTISPETAIEEAARIMMDKGINHIPVVEEGRLVGIITSWDIAKAVARNRKGAVKSIMTRNVIYTHPDEPVEVAARKMEQNNISALPVVDSRKRVLGIVTSEDLSKLIAREGHHHHHH", "soluble on expression in E. coli": "soluble"}, {"sequence": "SASSEVARHLLFQSHMATKTTCMSSQGSDDEQIKRENIRSLTMSGHVGFESLPDQLVNRSIQQGFCFNILCVGETGIGKSTLIDTLFNTNFEDYESSHFCPNVKLKAQTYELQESNVQLKLTIVNTVGFGDQINKEESYQPIVDYIDAQFEAYLQEELKIKRSLFTYHDSRIHVCLYFISPTGHSLKTLDLLTMKNLDSKVNIIPVIAKADTVSKTELQKFKIKLMSELVSNGVQIYQFPTDDDTIAKVNAAMNGQLPFAVVGSMDEVKVGNKMVKARQYPWGVVQVENENHCDFVKLREMLICTNMEDLREQTHTRHYELYRRCKLEEMGFTDVGPENKPVSVQETYEAKRHEFHGERQRKEEEMKQMFVQRVKEKEAILKEAERELQAKFEHLKRLHQEERMKLEEKRRLLEEEIIAFSKKKATSEIFHSQSFLATGSNLRKDKDRKNSNFL", "soluble on expression in E. coli": "not soluble"}, {"sequence": "MARHSALAQAERLEPLLTTNPLHGATLERIVTHLHDEYGWEELARRVPVKCFQNEPSVGSSLKFLRKTPWAREQVEAEYVKLARREDANPLIDALKRGQALDFTGVSQTKLHAALGWMLRHVEQNAQNLQLYFLPTLAHIQDVNFWPDAEPLPLLNLAIDRSALGAGDYEPGVVAELLRRGADANDPRFWPPLLHTVDVEGQAYQSKTRAPRTDLFDLLLAHGADPALEDSRGNTARSMAEAYGLRAVINKLNTLPAVSGSLEHHHHHH", "soluble on expression in E. coli": "soluble"}, {"sequence": "MGKIIAIANQKGGVGKTTTSVNLGAGLAQVGKKVLLVDIDAQGNATTGVGIEKSELDQCIYNVLVEDADVQGVIQKTATENLDVLPATIQLAGAEIELVPTISREVRLQRALQPVRDEYDYIIIDCPPSLGLLTINALTAADSVIIPVQCEYYALEGLSQLLNTVRLVQKHLNKNLAIQGVLLTMLDARTNLGIQVIDEVKKYFRDKVYRSIIPRNVRLSEAPSHGKPIMQYDAKSRGAEVYIDLAEEVIAGG", "soluble on expression in E. coli": "not soluble"}, {"sequence": "MGSDKIHHHHHHMSSEIVIRVKNLSKCFNIYDQPRDRLKQAILPRLQRLFGRPQKSYHKEFWALRNADFEIRRGETVGIIGRNGSGKSTLLQLLCGTLTPTHGDIEVTGKVAALLELGAGFNPEFTGRENVFLSGSFYGLTREQVQERFDRIAAFADIGDHIEQPVKTYSSGMFVRLAFAVIAHVDADILVIDEALSVGDAVFTQKCMRFIRSFQEKGTLLFVSHDMQSVVNLCRNAIWLNAGETRMKGTSKNVSEAYLKYTLQEVYGEEAILLSAAPKESTLDAPMFEEAGPPMLDYEAVASVSSNLFDAKGWKTGDAEIEAVQLESLTGENDGILRGGELVRMVVRARAHQPLERPVIGFMVRDRLGQNLFGENTLSLTALDQARVAAGQMFEGEFVFRLPMLPDGQYSVTASVADGDLHNNVQHHLLHDALIINVASSKVRWGLVGVPFERVTLNCI", "soluble on expression in E. coli": "not soluble"}]}]}
